According to paper PMC7736808:

Tests used:
Assay in all cases: MST
Conditions in all cases: 5-bromo-dC at every C, MST at 22 C, 5 nM labeled DNA, 0.5 mg/ml BSA, 0.05% Tween 20, 5 mM HEPES pH 7.5, 20 mM NaCl (Table 2), 20 mM HEPES pH 8.0, 100 mM NaCl (Table 4)
[1] = target: T1, GH5*:α3NADAR1-PW K41G;S42G;R43G;K53A;R95A;del65;D66K;L67K;Q68E;K70N;L71R;S72V;I73L;R74Y;R75S;S91P;F94W (/ human ADAR1 α3N and β-wing residues) (UniProt P02259)
T1 sequence: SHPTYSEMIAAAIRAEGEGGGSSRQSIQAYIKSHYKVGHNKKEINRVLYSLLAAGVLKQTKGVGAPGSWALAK

hZαADAR1 (human) [2] = target: T2, hZαADAR1 (human) (UniProt P55265)
T2 sequence: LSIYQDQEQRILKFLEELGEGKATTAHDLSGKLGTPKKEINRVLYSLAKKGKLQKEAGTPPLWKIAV

vvZαE3L = vvZαE3L (UniProt P21605)
hZαADAR1 (human) [3] = target: T2, hZαADAR1 (human); remark: listed apart in the source

## TCGCGCGCGCGCGCGCGCGCGCGCGCGCGCG (double strand) [Z-DNA, [d(5'-Cy5-T(Br5CG)15)]2]
[1]
  Kd: 1800 nM
hZαADAR1 (human) [2]
  Kd: 600 nM
vvZαE3L
  Kd: 2000 nM
hZαADAR1 (human) [3]
  Kd: 18 nM
